Experimental data from PMC4775432 (2015).

Target: T1, KRAS G12D peptide on HLA-A*11:01 (human)
T1 peptide: VVGADGVGK
Assay: cytokine release

binding result: no recognition
B1: TRAV4-4*01/BV12-2*01 (TCR)
alpha TRAV4-4/DV10*01 49*01 CDR3: CAADSSNTGYQNFYF
beta TRBV12-2*01 1-2*01 CDR3: CASSLTDPLDSDYTF
